{
  "source": "patent CN116472284A",
  "key": {"[1]": {"molecular_target": "SARS-CoV-2 spike on live SARS-CoV-2 virus (isolate France/IDF0372/2020) (SARS-CoV-2) (UniProt P0DTC2)", "test": "cell-based or functional assay"}, "[2]": {"molecular_target": "SARS-CoV-2 spike ectodomain, prefusion-stabilised trimer (刺突 S2P) (SARS-CoV-2)", "test": "SPR, captured spike S2P, biphasic dissociation, fast phase kd1"}, "[3]": {"molecular_target": "SARS-CoV-2 spike ectodomain, prefusion-stabilised trimer (刺突 S2P) (SARS-CoV-2)", "test": "SPR, captured spike S2P, biphasic dissociation, slow phase kd2"}, "[4]": {"molecular_target": "SARS-CoV-2 spike ectodomain, prefusion-stabilised trimer (刺突 S2P) (SARS-CoV-2)", "test": "SPR, captured spike S2P"}, "[5]": {"molecular_target": "SARS-CoV-2 spike ectodomain, prefusion-stabilised trimer (刺突 S2P) (SARS-CoV-2)"}, "[6]": {"molecular_target": "SARS-CoV-2 spike ectodomain, prefusion-stabilised trimer (刺突 S2P) (SARS-CoV-2)", "test": "SPR, captured spike S2P, no measurable dissociation in ten minutes"}},
  "data": [
    {"substance": "Nb6-tri (trivalent Nb6 with two 20 amino acid linkers) (VHH)", "values": [
      {"measurement": "mean IC50, plaque reduction neutralisation of live SARS-CoV-2 on VeroE6 cells", "setting": "[1]", "value": 0.16, "unit": "nM"},
      {"measurement": "koff", "setting": "[2]", "value": 0.029, "unit": "s⁻¹"},
      {"measurement": "koff", "setting": "[3]", "value": "< 1e-06", "unit": "s⁻¹"},
      {"measurement": "fold gain in KD against monovalent Nb6", "setting": "[4]", "value": "> 200000", "unit": "fold"}
    ]},
    {"substance": "mNb6 (affinity-matured Nb6, I27Y and P105Y) (VHH)", "values": [
      {"measurement": "EC50", "setting": "[5]", "value": 0.056, "unit": "nM"}
    ]},
    {"substance": "mNb6-tri (trivalent mNb6 with 20 amino acid linkers) (VHH)", "values": [
      {"measurement": "koff", "setting": "[6]", "value": "< 1e-06", "unit": "s⁻¹"},
      {"measurement": "Kd", "setting": "[4]", "value": "< 0.001", "unit": "nM"},
      {"measurement": "dissociation half-life t1/2", "setting": "[4]", "value": "> 8 天 (days)"}
    ]}
  ]
}
